Reference: patent publication US10919943B2, “Mutant proteins enabling agrochemical control of plant gene expression” (The Regents of the University of California, priority 2016, dated 2021)

Tested on: HAB1
Test: Yeast two hybrid of pBD-PYR1 site saturation mutants with pACT-HAB1 on 10 μM ABA, β-galactosidase staining
Type: cell-based, Arabidopsis
Parameters: key: x: Mutations in PYR1 that disrupt ABA-induced binding to PYR1 to HAB1
Details: S. cerevisiae Y190, 10 μM ABA; dead = lack of visible staining in comparison to wild type control
Description: To systematically identify mutations in PYR1 that disrupt its binding to HAB1, we utilized a collection of saturating mutations that contain all possible single amino acid substitutions in 24 conserved interface residues involved in binding HAB1, which was previously constructed for the purpose of engineering constitutively active ABA receptor variants (Mosquna et al., 2011). The interface residues previously mutagenized in this collection are the following: H60, F61, I62, K63, I84, S85, G86, L87, P88, A89, H115, R116, L117, P148, G150, N151, D154, D155, T156, M158, F159, T162, L166, K170. This set was made by mutagenizing a pBD-PYR1 template that encodes a GAL4-DNA binding domain fusion to PYR1, which can be used to assess receptor-HAB1 binding in S. cerevisiae strains co-transformed with pACT-HAB1, which expresses a GAL4 activation domain fusion to HAB1. Mutant pBD-PYR1 clones from the collection are maintained in S. cerevisiae strain Y190 co-transformed with pACT-HAB1. The test strains were spotted onto agar plates containing synthetic dextrose dropout media lacking leucine and tryptophan [SD (-Leu, -Trp)] medium supplemented with 10 μM ABA. After incubating the test plates at 30° C. for two days, colonies were chloroform lysed and stained to reveal […] expression levels and “dead” mutants were defined by lack of visible staining in comparison to a wild type control. This effort defined 237 mutations that disrupt ABA-induced binding of PYR1 to HAB1 (Table 1). Premade yeast drop out supplements (Clontech) were utilized in this and other examples for media preparation, amino acids and other standard chemicals were purchased from Sigma-Aldrich (USA). The naturally occurring (+)-ABA isomer was used in all experiments and purchased from Biosynth Ag (Switzerland).

| Mutations in PYR1 that disrupt ABA-induced binding to PYR1 to HAB1 | Molecule |
| --- | --- |
| x | G86A: PYR1 mutant (protein, UniProt O49686 1-191, looked up, variant G86A) Abscisic acid receptor PYR1: MPSELTPEERSELKNSIAEFHTYQLDPGSCSSLHAQRIHAPPELVWSIVRRFDKPQTYKHFIKSCSVEQNFEMRVGCTRDVIVISALPANTSTERLDILDDERRVTGFSIIGGEHRLTNYKSVTTVHRFEKENRIWTVVLESYVVDMPEGNSEDDTRMFADTVVKLNLQKLATVAEAMARNSGDGSGSQVT |
| x | G86T: PYR1 mutant (protein, UniProt O49686 1-191, looked up, variant G86T) Abscisic acid receptor PYR1: MPSELTPEERSELKNSIAEFHTYQLDPGSCSSLHAQRIHAPPELVWSIVRRFDKPQTYKHFIKSCSVEQNFEMRVGCTRDVIVISTLPANTSTERLDILDDERRVTGFSIIGGEHRLTNYKSVTTVHRFEKENRIWTVVLESYVVDMPEGNSEDDTRMFADTVVKLNLQKLATVAEAMARNSGDGSGSQVT |
| x | G86P: PYR1 mutant (protein, UniProt O49686 1-191, looked up, variant G86P) Abscisic acid receptor PYR1: MPSELTPEERSELKNSIAEFHTYQLDPGSCSSLHAQRIHAPPELVWSIVRRFDKPQTYKHFIKSCSVEQNFEMRVGCTRDVIVISPLPANTSTERLDILDDERRVTGFSIIGGEHRLTNYKSVTTVHRFEKENRIWTVVLESYVVDMPEGNSEDDTRMFADTVVKLNLQKLATVAEAMARNSGDGSGSQVT |
| x | G86N: PYR1 mutant (protein, UniProt O49686 1-191, looked up, variant G86N) Abscisic acid receptor PYR1: MPSELTPEERSELKNSIAEFHTYQLDPGSCSSLHAQRIHAPPELVWSIVRRFDKPQTYKHFIKSCSVEQNFEMRVGCTRDVIVISNLPANTSTERLDILDDERRVTGFSIIGGEHRLTNYKSVTTVHRFEKENRIWTVVLESYVVDMPEGNSEDDTRMFADTVVKLNLQKLATVAEAMARNSGDGSGSQVT |
| x | G86E: PYR1 mutant (protein, UniProt O49686 1-191, looked up, variant G86E) Abscisic acid receptor PYR1: MPSELTPEERSELKNSIAEFHTYQLDPGSCSSLHAQRIHAPPELVWSIVRRFDKPQTYKHFIKSCSVEQNFEMRVGCTRDVIVISELPANTSTERLDILDDERRVTGFSIIGGEHRLTNYKSVTTVHRFEKENRIWTVVLESYVVDMPEGNSEDDTRMFADTVVKLNLQKLATVAEAMARNSGDGSGSQVT |
| x | G86V: PYR1 mutant (protein, UniProt O49686 1-191, looked up, variant G86V) Abscisic acid receptor PYR1: MPSELTPEERSELKNSIAEFHTYQLDPGSCSSLHAQRIHAPPELVWSIVRRFDKPQTYKHFIKSCSVEQNFEMRVGCTRDVIVISVLPANTSTERLDILDDERRVTGFSIIGGEHRLTNYKSVTTVHRFEKENRIWTVVLESYVVDMPEGNSEDDTRMFADTVVKLNLQKLATVAEAMARNSGDGSGSQVT |
| x | G86D: PYR1 mutant (protein, UniProt O49686 1-191, looked up, variant G86D) Abscisic acid receptor PYR1: MPSELTPEERSELKNSIAEFHTYQLDPGSCSSLHAQRIHAPPELVWSIVRRFDKPQTYKHFIKSCSVEQNFEMRVGCTRDVIVISDLPANTSTERLDILDDERRVTGFSIIGGEHRLTNYKSVTTVHRFEKENRIWTVVLESYVVDMPEGNSEDDTRMFADTVVKLNLQKLATVAEAMARNSGDGSGSQVT |
| x | G86C: PYR1 mutant (protein, UniProt O49686 1-191, looked up, variant G86C) Abscisic acid receptor PYR1: MPSELTPEERSELKNSIAEFHTYQLDPGSCSSLHAQRIHAPPELVWSIVRRFDKPQTYKHFIKSCSVEQNFEMRVGCTRDVIVISCLPANTSTERLDILDDERRVTGFSIIGGEHRLTNYKSVTTVHRFEKENRIWTVVLESYVVDMPEGNSEDDTRMFADTVVKLNLQKLATVAEAMARNSGDGSGSQVT |
| x | G86Q: PYR1 mutant (protein, UniProt O49686 1-191, looked up, variant G86Q) Abscisic acid receptor PYR1: MPSELTPEERSELKNSIAEFHTYQLDPGSCSSLHAQRIHAPPELVWSIVRRFDKPQTYKHFIKSCSVEQNFEMRVGCTRDVIVISQLPANTSTERLDILDDERRVTGFSIIGGEHRLTNYKSVTTVHRFEKENRIWTVVLESYVVDMPEGNSEDDTRMFADTVVKLNLQKLATVAEAMARNSGDGSGSQVT |

More lines, now with the values behind:

| Molecule | Mutations in PYR1 that disrupt ABA-induced binding to PYR1 to HAB1 |
| --- | --- |
| G86H: PYR1 mutant (protein, UniProt O49686 1-191, looked up, variant G86H) Abscisic acid receptor PYR1: MPSELTPEERSELKNSIAEFHTYQLDPGSCSSLHAQRIHAPPELVWSIVRRFDKPQTYKHFIKSCSVEQNFEMRVGCTRDVIVISHLPANTSTERLDILDDERRVTGFSIIGGEHRLTNYKSVTTVHRFEKENRIWTVVLESYVVDMPEGNSEDDTRMFADTVVKLNLQKLATVAEAMARNSGDGSGSQVT | x |
| G86F: PYR1 mutant (protein, UniProt O49686 1-191, looked up, variant G86F) Abscisic acid receptor PYR1: MPSELTPEERSELKNSIAEFHTYQLDPGSCSSLHAQRIHAPPELVWSIVRRFDKPQTYKHFIKSCSVEQNFEMRVGCTRDVIVISFLPANTSTERLDILDDERRVTGFSIIGGEHRLTNYKSVTTVHRFEKENRIWTVVLESYVVDMPEGNSEDDTRMFADTVVKLNLQKLATVAEAMARNSGDGSGSQVT | x |
| G86K: PYR1 mutant (protein, UniProt O49686 1-191, looked up, variant G86K) Abscisic acid receptor PYR1: MPSELTPEERSELKNSIAEFHTYQLDPGSCSSLHAQRIHAPPELVWSIVRRFDKPQTYKHFIKSCSVEQNFEMRVGCTRDVIVISKLPANTSTERLDILDDERRVTGFSIIGGEHRLTNYKSVTTVHRFEKENRIWTVVLESYVVDMPEGNSEDDTRMFADTVVKLNLQKLATVAEAMARNSGDGSGSQVT | x |
| G86I: PYR1 mutant (protein, UniProt O49686 1-191, looked up, variant G86I) Abscisic acid receptor PYR1: MPSELTPEERSELKNSIAEFHTYQLDPGSCSSLHAQRIHAPPELVWSIVRRFDKPQTYKHFIKSCSVEQNFEMRVGCTRDVIVISILPANTSTERLDILDDERRVTGFSIIGGEHRLTNYKSVTTVHRFEKENRIWTVVLESYVVDMPEGNSEDDTRMFADTVVKLNLQKLATVAEAMARNSGDGSGSQVT | x |
| G86Y: PYR1 mutant (protein, UniProt O49686 1-191, looked up, variant G86Y) Abscisic acid receptor PYR1: MPSELTPEERSELKNSIAEFHTYQLDPGSCSSLHAQRIHAPPELVWSIVRRFDKPQTYKHFIKSCSVEQNFEMRVGCTRDVIVISYLPANTSTERLDILDDERRVTGFSIIGGEHRLTNYKSVTTVHRFEKENRIWTVVLESYVVDMPEGNSEDDTRMFADTVVKLNLQKLATVAEAMARNSGDGSGSQVT | x |
| G86L: PYR1 mutant (protein, UniProt O49686 1-191, looked up, variant G86L) Abscisic acid receptor PYR1: MPSELTPEERSELKNSIAEFHTYQLDPGSCSSLHAQRIHAPPELVWSIVRRFDKPQTYKHFIKSCSVEQNFEMRVGCTRDVIVISLLPANTSTERLDILDDERRVTGFSIIGGEHRLTNYKSVTTVHRFEKENRIWTVVLESYVVDMPEGNSEDDTRMFADTVVKLNLQKLATVAEAMARNSGDGSGSQVT | x |
| G86S: PYR1 mutant (protein, UniProt O49686 1-191, looked up, variant G86S) Abscisic acid receptor PYR1: MPSELTPEERSELKNSIAEFHTYQLDPGSCSSLHAQRIHAPPELVWSIVRRFDKPQTYKHFIKSCSVEQNFEMRVGCTRDVIVISSLPANTSTERLDILDDERRVTGFSIIGGEHRLTNYKSVTTVHRFEKENRIWTVVLESYVVDMPEGNSEDDTRMFADTVVKLNLQKLATVAEAMARNSGDGSGSQVT | x |
| G86W: PYR1 mutant (protein, UniProt O49686 1-191, looked up, variant G86W) Abscisic acid receptor PYR1: MPSELTPEERSELKNSIAEFHTYQLDPGSCSSLHAQRIHAPPELVWSIVRRFDKPQTYKHFIKSCSVEQNFEMRVGCTRDVIVISWLPANTSTERLDILDDERRVTGFSIIGGEHRLTNYKSVTTVHRFEKENRIWTVVLESYVVDMPEGNSEDDTRMFADTVVKLNLQKLATVAEAMARNSGDGSGSQVT | x |
| G86R: PYR1 mutant (protein, UniProt O49686 1-191, looked up, variant G86R) Abscisic acid receptor PYR1: MPSELTPEERSELKNSIAEFHTYQLDPGSCSSLHAQRIHAPPELVWSIVRRFDKPQTYKHFIKSCSVEQNFEMRVGCTRDVIVISRLPANTSTERLDILDDERRVTGFSIIGGEHRLTNYKSVTTVHRFEKENRIWTVVLESYVVDMPEGNSEDDTRMFADTVVKLNLQKLATVAEAMARNSGDGSGSQVT | x |
| G86M: PYR1 mutant (protein, UniProt O49686 1-191, looked up, variant G86M) Abscisic acid receptor PYR1: MPSELTPEERSELKNSIAEFHTYQLDPGSCSSLHAQRIHAPPELVWSIVRRFDKPQTYKHFIKSCSVEQNFEMRVGCTRDVIVISMLPANTSTERLDILDDERRVTGFSIIGGEHRLTNYKSVTTVHRFEKENRIWTVVLESYVVDMPEGNSEDDTRMFADTVVKLNLQKLATVAEAMARNSGDGSGSQVT | x |
